Test results taken from patent publication US9051581B2, “Defense peptides against fungal infection and method of their use” (The Curators of the University of Missouri, priority 2010, dated 2015).

Experiments:
[1] = test system: Phakopsora pachyrhizi urediniospores; experiment: In vitro inhibition of urediniospore germ tube growth by ZmCKX1-peptides; format: cell-based; settings: for reduction of average germ tube length in comparison to water: 58 μM; for reduction of average germ tube length in comparison to water / decrease of germ tube growth in comparison to water: 8 h incubation; for decrease of germ tube growth in comparison to water: 230 μM (highest concentration)
Experimental: Purified ZmCKX1-Sp2 and ZmCKX1-Sp39 peptides were assessed in vitro for the ability to inhibit urediniospore germination. A 25-μl water droplet containing 300 freshly harvested MOS-2008 urediniospores was incubated on a glass slide in the presence of either ZmCKX1-Sp2 or ZmCKX1-Sp39. Control treatments included urediniospores incubated in water or in the presence of ZmCKX1 alone. Germ tube growth was visualized over time and quantified by image capture and analyses as described previously.

[2] = test system: Phakopsora pachyrhizi urediniospores; experiment: Inhibition of soybean leaf infection (rust lesion formation) by ZmCKX1-peptides; format: in vivo; settings: 7 days of incubation; 115 μM; water close to 50%
Experimental: Young, fully expanded leaves were excised from soybean plants (Williams 82) and used for assessment of ZmCKX1-peptide inhibition. Two 10-μl droplets of each ZmCKX1-peptide-urediniospore mixture or control treatment were applied to the upper surface of a single leaf. Each droplet contained 50 urediniospores mixed with either ZmCKX1-Sp2 or ZmCKX1-Sp39 at a final concentration of 115 μM. Control treatments included urediniospores in water or mixed with 115 μM ZmCKX1. Droplet treatments were replicated four times.
Inoculated leaves were incubated for 8 h before rinsing away droplets and drying as described previously. Leaves were transferred to sealed Petri dishes and incubated in a growth chamber at 22° C. and 90% RH, under a 12 h light/dark cycle. The percentage of inoculations that produced rust lesions was recorded at 3 to 4 day intervals for 27 days.

[3] = test system: 20 kDa Phakopsora pachyrhizi protein; experiment: Far-western assay for P. pachyrhizi proteins that bind the peptides; format: binding; settings: protein from germinated urediniospores; bait protein, ZmCKX1 antibody detection
Experimental: A far-western assay was used to identify P. pachyrhizi proteins that bind to the disclosed peptides (3, 35). To prepare fungal proteins, MOS-2008 urediniospores were germinated and grown for 4 h. Fungal tissues were ground in liquid nitrogen and suspended in phosphate buffer (pH. 6.5) containing 0.1 M mannitol and Tween-20. Fungal debris was separated from soluble material by centrifugation, and the protein concentration of the soluble fraction was determined. Equal amounts of protein were loaded into the wells of an acrylamide gel, separated by SDS-PAGE, and then transferred to PVDF membrane. The membranes were incubated with a bait protein that consisted of the ZmCKX1 scaffold alone, ZmCKX1-Sp2, or ZmCKX1-Sp39. The unbound bait proteins were washed off of the blot, and the blot was incubated with ZmCKX1 polyclonal antibody (1), followed by a second antibody, anti-rabbit IgG conjugated to alkaline phosphatase (Promega, Madison, Wis.).

| Molecule | reduction of average germ tube length in comparison to water [1] | decrease of germ tube growth in comparison to water [1] | inoculations that produced lesions [2] | detection of fungal protein band in far-western blot [3] | germ tube growth inhibition ([1]; all concentrations except 230 μM, 8 h) |
| --- | --- | --- | --- | --- | --- |
| ZmCKX1-Sp2: peptide Sp2 fused to the C-terminus of the scaffold protein ZmCKX1, expressed in Pichia pastoris (protein) LAAGTPALGDDRGRPWPASLAALALDGKLRTDSNATAAASTDFGNITSALPAAVLYPSSTGDLVALLSAANSTPGWPYTIAFRGRGHSLMGQAFAPGGVVVNMASLGDAAAPPRINVSADGRYVDAGGEQVWIDVLRASLARGVAPRSWNDYLYLTVGGTLSNAGISGQAFRHGPQISNVLEMDVITGHGEMVTCSKQLNADLFDAVLGGLGQFGVITRARIAVEPAPARARWVRFVYTDFAAFSADQERLTAPRPGGGGASFGPMSYVEGSVFVNQSLATDLANTGFFTDADVARIVALAGERNATTVYSIEATLNYDNATAAAAAVDQELASVLGTLSYVEGFAFQRDVAYAAFLDRVHGEEVALNKLGLWRVPHPWLNMFVPRSRIADFDRGVFKGILQGTDIVGPLIVYPLNKSMWDDGMSAATPSEDVFYAVSLLFSSVAPNDLARLQEQNRRILRFCDLAGIQYKTYLARHTDRSDWVRHFGAAKWNRFVEMKNKYDPKRLLSPGQDIFNMLESHAWPPRAI | 52% | 94% | 13% | specifically interacted with a fungal protein approximately 20 kDa in size | – |
| ZmCKX1: recombinant maize cytokinin oxidase scaffold without peptide insert, control (protein) LAAGTPALGDDRGRPWPASLAALALDGKLRTDSNATAAASTDFGNITSALPAAVLYPSSTGDLVALLSAANSTPGWPYTIAFRGRGHSLMGQAFAPGGVVVNMASLGDAAAPPRINVSADGRYVDAGGEQVWIDVLRASLARGVAPRSWNDYLYLTVGGTLSNAGISGQAFRHGPQISNVLEMDVITGHGEMVTCSKQLNADLFDAVLGGLGQFGVITRARIAVEPAPARARWVRFVYTDFAAFSADQERLTAPRPGGGGASFGPMSYVEGSVFVNQSLATDLANTGFFTDADVARIVALAGERNATTVYSIEATLNYDNATAAAAAVDQELASVLGTLSYVEGFAFQRDVAYAAFLDRVHGEEVALNKLGLWRVPHPWLNMFVPRSRIADFDRGVFKGILQGTDIVGPLIVYPLNKSMWDDGMSAATPSEDVFYAVSLLFSSVAPNDLARLQEQNRRILRFCDLAGIQYKTYLARHTDRSDWVRHFGAAKWNRFVEMKNKYDPKRLLSPGQDIFN | – | 26% | – | absent | less than 10% |
| ZmCKX1-Sp39: peptide Sp39 fused to the C-terminus of the scaffold protein ZmCKX1, expressed in Pichia pastoris (protein) LAAGTPALGDDRGRPWPASLAALALDGKLRTDSNATAAASTDFGNITSALPAAVLYPSSTGDLVALLSAANSTPGWPYTIAFRGRGHSLMGQAFAPGGVVVNMASLGDAAAPPRINVSADGRYVDAGGEQVWIDVLRASLARGVAPRSWNDYLYLTVGGTLSNAGISGQAFRHGPQISNVLEMDVITGHGEMVTCSKQLNADLFDAVLGGLGQFGVITRARIAVEPAPARARWVRFVYTDFAAFSADQERLTAPRPGGGGASFGPMSYVEGSVFVNQSLATDLANTGFFTDADVARIVALAGERNATTVYSIEATLNYDNATAAAAAVDQELASVLGTLSYVEGFAFQRDVAYAAFLDRVHGEEVALNKLGLWRVPHPWLNMFVPRSRIADFDRGVFKGILQGTDIVGPLIVYPLNKSMWDDGMSAATPSEDVFYAVSLLFSSVAPNDLARLQEQNRRILRFCDLAGIQYKTYLARHTDRSDWVRHFGAAKWNRFVEMKNKYDPKRLLSPGQDIFNYNKPSFQDHSVI | 36% | 91% | 16% | specifically interacted with a fungal protein approximately 20 kDa in size | – |
